Assay results: patent publication US20190085082A1 (CANCER RESEARCH TECHNOLOGY, published 2019)

Legend:
[1] = molecular target: T1, murine CLEC14A-Fc fusion protein (mouse, UniProt Q8VCP9 22-386); experiment: ELISA of hybridoma supernatants on absorbed antigen
T1 construct: extracellular domain; also called CM; mCLEC14A-Fc; not shown: human Fc tag from the pcDNA3-Fc plasmid
T1 sequence (looked up): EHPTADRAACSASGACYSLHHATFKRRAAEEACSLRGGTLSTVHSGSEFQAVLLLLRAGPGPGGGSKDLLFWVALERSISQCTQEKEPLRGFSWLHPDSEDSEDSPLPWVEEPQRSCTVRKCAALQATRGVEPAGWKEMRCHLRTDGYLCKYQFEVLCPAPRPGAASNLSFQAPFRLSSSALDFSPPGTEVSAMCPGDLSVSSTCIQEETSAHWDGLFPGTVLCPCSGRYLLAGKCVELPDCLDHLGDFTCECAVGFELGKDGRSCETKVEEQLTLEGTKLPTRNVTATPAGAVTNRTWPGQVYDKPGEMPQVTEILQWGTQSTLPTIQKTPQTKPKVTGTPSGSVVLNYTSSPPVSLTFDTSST
Protocol: More than 500 HAT-resistant hybridoma clones from each mouse were obtained. All of the clone supernatants were tested twice with 4 days interval by ELISA against three absorbed antigens (CM, CH and Fc). […] The positives were cloned 2-4 times by the limiting dilution method, propagated in culture flasks and injected into mice for ascites. One clone (CRT-3) was the result of immunisation with CLEC14a human-AP (CHAP), and the other clone (CRT-2) was the result of immunisation with CLEC14a mouse-AP (CM-AP).

[2] = molecular target: T2, thrombomodulin (CD141), wild type, with C-terminal GFP tag, expressed on HEK293T cells (UniProt P07204 19-575); experiment: flow cytometry, HEK293T cells transfected with thrombomodulin (C-terminal GFP tag, GFP-positive cells gated)
T2 construct: whole, on cells; also called WT CD141; VVT CD141; not shown: C-terminal GFP tag
T2 sequence (P07204 19-575): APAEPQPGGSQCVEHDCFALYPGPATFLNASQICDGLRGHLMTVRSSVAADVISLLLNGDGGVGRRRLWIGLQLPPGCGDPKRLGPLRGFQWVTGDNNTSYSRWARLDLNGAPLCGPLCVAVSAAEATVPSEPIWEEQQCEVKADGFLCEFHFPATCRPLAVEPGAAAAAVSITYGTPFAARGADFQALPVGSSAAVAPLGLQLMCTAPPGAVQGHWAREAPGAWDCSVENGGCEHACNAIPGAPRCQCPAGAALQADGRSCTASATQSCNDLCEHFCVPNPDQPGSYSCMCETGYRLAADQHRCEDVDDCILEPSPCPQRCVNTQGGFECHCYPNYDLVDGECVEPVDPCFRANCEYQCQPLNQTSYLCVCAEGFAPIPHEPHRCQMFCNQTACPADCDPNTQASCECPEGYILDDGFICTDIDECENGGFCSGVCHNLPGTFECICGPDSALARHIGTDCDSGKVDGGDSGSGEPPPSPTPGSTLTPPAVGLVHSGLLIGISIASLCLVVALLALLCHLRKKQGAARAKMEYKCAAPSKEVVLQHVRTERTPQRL

[3] = molecular target: T3, full length human CLEC14A on cells (engineered CHO, SEND or 293 cells; HUVECs) (human, UniProt Q86T13 22-490); experiment: fluorescence microscopy of HUVEC treated with CRT-3, antibody localisation at 0 and 90 minutes
T3 construct: HUVECs express it naturally; also called huCLEC
T3 sequence: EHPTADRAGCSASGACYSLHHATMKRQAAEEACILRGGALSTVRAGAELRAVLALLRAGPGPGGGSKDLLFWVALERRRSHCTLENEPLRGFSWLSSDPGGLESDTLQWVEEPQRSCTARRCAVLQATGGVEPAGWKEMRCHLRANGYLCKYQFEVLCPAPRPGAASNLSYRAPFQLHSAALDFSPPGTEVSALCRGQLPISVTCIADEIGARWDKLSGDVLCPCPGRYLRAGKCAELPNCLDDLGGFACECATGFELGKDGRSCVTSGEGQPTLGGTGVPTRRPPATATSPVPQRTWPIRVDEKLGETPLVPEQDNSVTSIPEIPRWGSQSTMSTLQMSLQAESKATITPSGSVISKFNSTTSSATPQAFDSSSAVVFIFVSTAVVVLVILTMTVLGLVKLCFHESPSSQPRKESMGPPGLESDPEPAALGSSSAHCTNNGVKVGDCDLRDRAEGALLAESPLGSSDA

- binding result [1]: binds
- binding result [2]: no binding
- binding result [3]: binds
B1: CRT-3 anti-CLEC14A monoclonal antibody (antibody, IgG1, V domains shown)
VH: EVQLQQSGTVLARPGASVKMSCKASGYTFTSYWMHWVKQRPGQGLEWIGAIYPGNSDTSYNQKFKGKAKLTAVTSTSTAYMELSSLTNEDSAVFYCTHYYGSDYAMDYWGQGTSVTV
VL: QIVLTQSPAIMSASLGERVTMTCTASSSVSSSYLHWYQQKPGSSPKLWIYSTSNLASGVPARFSGSGSGTSYSLTISSMEAEDAATYYCHQYHRSPRTFGGGTKLEIKR
